Where a SMILES comes first, the peptide text is derived from it. Bridges are numbered along the chain shown (N, C = ends). Where no end group is shown, it is not given here.
Experiments:
[1] = biological target: T1, human SSTR4 (Homo sapiens, UniProt P31391); test: [125I]-somatostatin binding inhibition, SSTR4 CHO cell membrane fraction; settings: 25° C., 60 minutes
T1 construct: expressed in transfected cells; host or cells: CHO(dhfr-) cells, clone SSTR4-1-2, plasmid pA-1-11-SSTR4 (vector pAKKO-111)
Description: CHO(dhfr^−) cells (1×10^6 cells) were cultured on HAM F12 medium containing 10% fetal bovine serum in a dish with a diameter of 8 cm for 24 hours. Into these cells was introduced 10 μg of the human SSTR4 DNA expression plasmid pA-1-11-SSTR4 obtained as described above in (2) by the calcium phosphate method (Cell Phect Transfection Kit; Pharmacia). At 24 hours after transfection, the medium was exchanged for DMEM containing 10% dialyzed fetal bovine serum, and cells forming a colony on this medium (namely DHFR^+ cells) were selected. Further, the cells selected were treated by the limiting dilution method for cloning from a single cell, and the cells thus cloned were measured for their somatostatin receptor protein expression ability by the binding assay described in Reference Example 1 (3). In this manner, a cell line with high somatostatin-binding activity, SSTR4-1-2, was selected.
The human somatostatin receptor expressing CHO cell lines SSTR1-8-3, SSTR2-HS5-9, SSTR3-15-19, SSTR4-1-2 and SSTR5-32-4 (10^9 cells each) were respectively suspended in phosphate buffered physiological saline supplemented with 5 mM EDTA (PBS-EDTA) and centrifuged. To each cell pellet was added 10 ml of cell homogenation buffer (10 mM NaHCO3, 5 mM EDTA, pH=7.5), followed by homogenation with a Polytron homogenizer. The homogenate was centrifuged at 400×g for 15 minutes, and the supernatant obtained was further centrifuged at 100,000×g for 1 hour to give a membrane fraction as a precipitate. […]
(§1) The membrane fractions prepared in Reference Example 6 were each diluted to 3 μg/ml with assay buffer. […] After filtration, the radioactivity of [^125I]-somatostatin remaining on the filter paper was measured. For each test substance, the binding inhibition percentage (%) was calculated according to the formula: PBM=(B−NSB)/(B0−NSB)×100 (where PBM: percent maximum binding; B: radioactivity when the test sample is added; B0: maximum bound radioactivity; NSB: non-specifically bound radioactivity). […]

[2] = biological target: T2, human SSTR5 (Homo sapiens, UniProt P35346); test: [125I]-somatostatin binding inhibition, SSTR5 CHO cell membrane fraction; settings: 25° C., 60 minutes
T2 construct: expressed in transfected cells; host or cells: CHO(dhfr-) cells, clone SSTR5-32-4, plasmid pA-1-11-SSTR5 (vector pAKKO-111)
Description: CHO(dhfr^−) cells (1×10^6 cells) were cultured on HAM F12 medium containing 10% fetal bovine serum in a dish with a diameter of 8 cm for 24 hours. Into these cells was introduced 10 μg of the human SSTR5 cDNA expression plasmid pA-1-11-SSTR5 obtained as described above in (2) by the calcium phosphate method (Cell Phect Transfection Kit; Pharmacia). At 24 hours after transfection, the medium was exchanged for DMEM containing 10% dialyzed fetal bovine serum, and cells forming a colony on this medium (namely DHFR^+ cells) were selected. Further, the cells selected were treated by the limiting dilution method for cloning from a single cell, and the cells thus cloned were measured for their somatostatin receptor protein expression ability by the binding assay described in Reference Example 1 (3). In this manner, a cell line with high somatostatin-binding activity. SSTR5-32-4, was selected. […]
as §1

[3] = biological target: T3, human somatostatin receptor protein subtype 2 (SSTR2) (human, UniProt P30874 1-369); test: cell-based or functional assay
[4] = biological target: T4, human somatostatin receptor protein subtype 3 (SSTR3) (human, UniProt P32745 1-418); test: cell-based or functional assay
[5] = biological target: human somatostatin receptor protein subtype 4 (SSTR4) (human, UniProt P31391 1-388); test: cell-based or functional assay
[6] = biological target: T5, human somatostatin receptor protein subtype 5 (SSTR5) (human, UniProt P35346 1-364); test: cell-based or functional assay
[7] = biological target: T3, human somatostatin receptor protein …; test: displacement of 200 pM [125I]-somatostatin from membrane fraction of CHO cells expressing the human receptor; filter binding, Hill plot
Description: (§2) The membrane fractions prepared in Reference Example 6 were each diluted to 3 µg/ml with assay buffer. […] After 60 minutes of reaction at 25° C., each reaction mixture was suction-filtered using a polyethyleneimine-treated Whatman glass filter (GF-B). […] For each test substance, the binding inhibition percentage (%) was calculated according to the formula:
(§3) PBM=(B-NSB)/(B_0-NSB)×100 (where PBM: percent maximum binding; B: radioactivity when the test sample is added; B_0: maximum bound radioactivity; NSB: non-specifically bound radioactivity).

[8] = biological target: T4, human somatostatin receptor protein …; test: as above
Description: as §2, §3

[9] = biological target: T5, human somatostatin receptor protein …; test: as above
Description: as §2, §3

[10] = biological target: T6, human somatostatin receptor protein subtype 1 (SSTR1) (human, UniProt P30872 1-391); test: as above
T6 construct: whole, on cells; also called cell line SSTR1-8-3
Description: as §2, §3

T3 sequence (P30874 whole entry): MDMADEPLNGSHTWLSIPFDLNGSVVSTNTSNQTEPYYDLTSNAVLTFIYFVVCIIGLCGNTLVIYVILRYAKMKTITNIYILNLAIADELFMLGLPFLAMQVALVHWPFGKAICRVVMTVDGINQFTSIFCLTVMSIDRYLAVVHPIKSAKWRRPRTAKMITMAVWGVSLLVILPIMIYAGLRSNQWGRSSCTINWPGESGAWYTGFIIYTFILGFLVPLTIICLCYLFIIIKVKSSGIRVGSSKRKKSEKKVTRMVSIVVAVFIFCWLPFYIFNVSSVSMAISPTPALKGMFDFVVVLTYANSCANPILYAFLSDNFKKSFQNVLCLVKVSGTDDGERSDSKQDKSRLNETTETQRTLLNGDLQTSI
T4 sequence (P32745 whole entry): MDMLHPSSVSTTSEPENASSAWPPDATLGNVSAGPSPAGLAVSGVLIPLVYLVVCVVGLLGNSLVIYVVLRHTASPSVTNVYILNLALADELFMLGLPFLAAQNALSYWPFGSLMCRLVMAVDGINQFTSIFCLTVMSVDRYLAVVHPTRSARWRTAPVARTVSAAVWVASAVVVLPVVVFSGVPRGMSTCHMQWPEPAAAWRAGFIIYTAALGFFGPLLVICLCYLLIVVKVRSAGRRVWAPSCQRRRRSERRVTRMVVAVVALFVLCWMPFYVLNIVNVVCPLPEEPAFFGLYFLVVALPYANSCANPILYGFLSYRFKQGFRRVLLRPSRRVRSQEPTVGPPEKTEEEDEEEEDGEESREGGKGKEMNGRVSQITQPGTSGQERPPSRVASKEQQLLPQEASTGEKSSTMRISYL
T5 sequence (P35346 whole entry): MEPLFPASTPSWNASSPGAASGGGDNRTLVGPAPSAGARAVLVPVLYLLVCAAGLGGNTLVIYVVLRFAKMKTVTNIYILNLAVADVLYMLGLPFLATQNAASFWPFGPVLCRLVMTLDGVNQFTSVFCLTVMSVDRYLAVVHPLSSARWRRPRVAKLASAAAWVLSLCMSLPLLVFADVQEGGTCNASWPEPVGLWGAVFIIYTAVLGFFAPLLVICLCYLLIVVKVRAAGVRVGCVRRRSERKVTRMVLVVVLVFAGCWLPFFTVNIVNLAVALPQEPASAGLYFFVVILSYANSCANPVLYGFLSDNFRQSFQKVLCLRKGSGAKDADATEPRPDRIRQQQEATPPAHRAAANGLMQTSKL
T2 sequence (P35346 whole entry): as above
T1 sequence (P31391 whole entry): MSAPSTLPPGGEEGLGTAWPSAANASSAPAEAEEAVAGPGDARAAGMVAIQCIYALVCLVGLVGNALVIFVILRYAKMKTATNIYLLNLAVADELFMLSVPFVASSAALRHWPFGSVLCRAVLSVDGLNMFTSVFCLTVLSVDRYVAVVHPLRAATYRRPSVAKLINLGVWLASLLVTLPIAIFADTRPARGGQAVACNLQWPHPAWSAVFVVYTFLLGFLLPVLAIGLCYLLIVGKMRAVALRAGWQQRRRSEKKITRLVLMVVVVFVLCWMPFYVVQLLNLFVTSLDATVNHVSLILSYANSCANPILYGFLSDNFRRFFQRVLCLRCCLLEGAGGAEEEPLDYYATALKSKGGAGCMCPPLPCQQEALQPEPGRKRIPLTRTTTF
human somatostatin receptor protein subtype 4 (SSTR4), sequence (P31391 whole entry): as above
T6 sequence (P30872 whole entry): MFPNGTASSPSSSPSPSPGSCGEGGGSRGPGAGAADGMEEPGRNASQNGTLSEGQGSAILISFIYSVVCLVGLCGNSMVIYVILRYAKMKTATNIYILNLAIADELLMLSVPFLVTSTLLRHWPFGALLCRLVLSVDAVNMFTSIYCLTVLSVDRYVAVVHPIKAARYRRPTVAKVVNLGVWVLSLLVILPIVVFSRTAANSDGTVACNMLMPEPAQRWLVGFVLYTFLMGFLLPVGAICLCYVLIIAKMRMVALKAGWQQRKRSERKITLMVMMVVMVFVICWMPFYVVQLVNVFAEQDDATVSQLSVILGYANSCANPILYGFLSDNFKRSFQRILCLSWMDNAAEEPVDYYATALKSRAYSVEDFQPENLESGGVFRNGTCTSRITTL

Row | IC50 [1] [nM] | IC50 [2] [nM] | ED50 of inhibition of forskolin-stimulated intracellular cAMP accumulation [3] [nM] | ED50 of inhibition of forskolin-stimulated intracellular cAMP accumulation [4] [nM] | ED50 of inhibition of forskolin-stimulated intracellular cAMP accumulation [5] [nM] | ED50 of inhibition of forskolin-stimulated intracellular cAMP accumulation [6] [nM] | IC50 [7] [nM] | IC50 [8] [nM] | IC50 [9] [nM] | IC50 [10] [nM] | Molecule
1 | 0.5 | 0.5 | – | – | – | – | – | – | – | – | C[C@@H](O)[C@@H]1NC(=O)[C@H](CCCCN)NC(=O)[C@H](Cc2c[nH]c3ccccc23)NC(=O)[C@H](Cc2ccccc2)NC(=O)[C@H](Cc2ccccc2)NC(=O)[C@H](CC(N)=O)NC(=O)[C@H](CCCNC(=N)N)NC(=O)[C@@H](N)CSSC[C@@H](C(=O)N[C@@H](CCCCN)C(=O)O)NC(=O)[C@H](CO)NC(=O)[C@H](CO)NC(=O)[C@H](Cc2ccccc2)NC1=O [hCS-13] (H-CRNFFWKTFSSCK-OH; disulfide 1-12; N-terminus and C-terminus assumed)
2 | – | – | 5 | 1 | 0.1 | 0.2 | 0.6 | 0.6 | 0.4 | – | DRMPCRNFFWKTFSSCK (disulfide 5-16) [human peptide hCS-17]
3 | – | – | 7 | 1 | 0.2 | 0.2 | 0.8 | 0.9 | – | – | MPCRNFFWKTFSSCK (disulfide 3-14) [deletion type human peptide hCS-15]
4 | – | – | – | – | – | – | 0.3 | 0.7 | – | 6 | CRNFFWKTFSSCK (disulfide 1-12) [deletion type human peptide hCS-13]
